# Values of other authors, collected in patent US10525162B2, “Sophorolipid mediated accelerated gelation of silk fibroin” (COUNCIL OF SCIENTIFIC & INDUSTRIAL RESEARCH, priority 2014, dated 2020).
# Conditions: aqueous SF solution without additive, below the isoelectric pH
substance,measurement,value
"SF: Silk fibroin, fibrous protein derived from silkworm Bombyx mori",gelation time,10 to 16 h
